Reference: EP4335450A1 (Cellemedy Co., Ltd, dated 2024)

Molecular target: T1, human transferrin receptor-Fc tag standard (human, UniProt P02786 89-760, limits assumed)
T1 construct: Coated on the ELISA plate at 2 µg/ml; also called hTfR; not shown: Fc tag
Experiment: ELISA, hTfR-Fc coated on plate; calculated from an expected saturation point, curve not saturated at 10000 nM

T1 sequence (P02786 89-760 limits assumed): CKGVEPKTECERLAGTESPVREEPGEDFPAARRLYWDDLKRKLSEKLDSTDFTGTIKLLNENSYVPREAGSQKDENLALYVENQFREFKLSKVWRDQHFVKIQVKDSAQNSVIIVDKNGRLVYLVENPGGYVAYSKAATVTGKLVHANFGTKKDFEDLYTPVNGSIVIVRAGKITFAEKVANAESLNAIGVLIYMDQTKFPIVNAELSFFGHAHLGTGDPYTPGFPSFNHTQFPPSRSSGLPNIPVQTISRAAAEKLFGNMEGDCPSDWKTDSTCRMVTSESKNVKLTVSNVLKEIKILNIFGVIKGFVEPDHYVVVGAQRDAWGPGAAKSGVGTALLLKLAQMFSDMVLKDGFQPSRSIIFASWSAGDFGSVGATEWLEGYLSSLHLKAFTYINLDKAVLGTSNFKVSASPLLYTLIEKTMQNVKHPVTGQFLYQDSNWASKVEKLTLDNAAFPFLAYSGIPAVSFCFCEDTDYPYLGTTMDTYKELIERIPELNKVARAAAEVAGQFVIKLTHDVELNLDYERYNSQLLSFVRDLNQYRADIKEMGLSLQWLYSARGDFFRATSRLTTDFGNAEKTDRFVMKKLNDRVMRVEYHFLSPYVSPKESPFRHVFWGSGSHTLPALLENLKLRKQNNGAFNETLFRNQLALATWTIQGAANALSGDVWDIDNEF

B1: huHF_Mutant2-dual (other)
chain: MTTASTSQVRQNYHAASEAAINAQINLELYASYVYLSMSYYFDRDDVALKNFAKYFLHQSHEEREHAEKLMKLQNQRGGRIALADIQKPDCDDGGSYGSLYAFDIWESGLNAMECALHLEKNVNQSLLALHALATAKNDPHLCDFIETHYLNEQVKAIKELGDHVTNLRKMGAPESGLAEYLFDKHTLGDSDNESMPSFITLASLSTWEGYFDF
notes: Ferritin particle of 24 monomers
- Kd: ~4.4 µM
